These results are taken from publication PMC11073785, “YeeD is an essential partner for YeeE-mediated thiosulfate uptake in bacteria and regulates thiosulfate ion decomposition” (PLOS Biology, 2024).

The chains are these.
T1: StYeeD (Winmispira thermophila, UniProt G0GAP7)
T1 construct: gene Spith_0735; expressed in E. coli C41(DE3)
T1 sequence (G0GAP7 1-80): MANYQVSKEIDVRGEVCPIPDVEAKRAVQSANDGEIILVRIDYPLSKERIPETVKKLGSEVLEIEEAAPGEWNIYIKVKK

T2: Spirochaeta thermophila YeeE (Spirochaeta thermophila, UniProt G0GAP6 1-328)
T2 construct: YeeE of Spirochaeta thermophila, residues 1-328, UniProt G0GAP6; Membrane protein, kept in 0.1% DDM; The His tag was removed with TEV(S219V) protease; also called StYeeE; TsuA; source: E. coli C41(DE3), purified from the membrane fraction in DDM (Ni-NTA, TEV cleavage, Superdex 200)
T2 sequence (looked up): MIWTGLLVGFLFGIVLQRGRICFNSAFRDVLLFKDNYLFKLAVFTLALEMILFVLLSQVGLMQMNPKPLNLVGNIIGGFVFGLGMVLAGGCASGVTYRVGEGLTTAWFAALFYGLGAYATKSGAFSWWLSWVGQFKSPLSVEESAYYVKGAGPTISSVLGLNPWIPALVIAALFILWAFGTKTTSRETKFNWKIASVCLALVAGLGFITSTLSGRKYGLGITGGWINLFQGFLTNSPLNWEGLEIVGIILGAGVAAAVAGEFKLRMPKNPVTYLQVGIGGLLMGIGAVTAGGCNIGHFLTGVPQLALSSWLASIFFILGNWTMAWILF

B1: Spirochaeta thermophila YeeD (WT), His6-tagged (natural protein, UniProt G0GAP7 1-80, looked up)
chain: T1 sequence (G0GAP7 1-80)
notes: YeeD of Spirochaeta thermophila, residues 1-80, UniProt G0GAP7; 11.3 kDa with the tag; As purified, C17 is partly modified (mass spectrometry: -SH, -S-O2-/-S-S-, -S-SO3-); also called StYeeD; StYeeD(WT); source: E. coli C41(DE3), purified (Ni-NTA, Superdex 200)
B2: StYeeE (Winmispira thermophila DSM 6578) (protein)
chain: T2 sequence (looked up)
notes: 1-328 aa with C-terminal …-His8, His-tag removed by TEV; expressed in E. coli C41(DE3), purified in DDM, reconstituted in E. coli total lipid liposomes
B3: StYeeD(V39A), His6-tagged (natural protein, Spirochaeta thermophila, UniProt G0GAP7 1-80, looked up)
chain: T1 sequence (G0GAP7 1-80) with V39A
notes: YeeD of Spirochaeta thermophila, residues 1-80, UniProt G0GAP7, with V39A; source: E. coli C41(DE3), purified (Ni-NTA, Superdex 200)
B4: StYeeD(L45A), His6-tagged (natural protein, Spirochaeta thermophila, UniProt G0GAP7 1-80, looked up)
chain: T1 sequence (G0GAP7 1-80) with L45A
notes: YeeD of Spirochaeta thermophila, residues 1-80, UniProt G0GAP7, with L45A; source: E. coli C41(DE3), purified (Ni-NTA, Superdex 200)
B5: StYeeD(K8A), His6-tagged (natural protein, Spirochaeta thermophila, UniProt G0GAP7 1-80, looked up)
chain: T1 sequence (G0GAP7 1-80) with K8A
notes: YeeD of Spirochaeta thermophila, residues 1-80, UniProt G0GAP7, with K8A; source: E. coli C41(DE3), purified (Ni-NTA, Superdex 200)
B6: StYeeD(R49A), His6-tagged (natural protein, Spirochaeta thermophila, UniProt G0GAP7 1-80, looked up)
chain: T1 sequence (G0GAP7 1-80) with R49A
notes: YeeD of Spirochaeta thermophila, residues 1-80, UniProt G0GAP7, with R49A; source: E. coli C41(DE3), purified (Ni-NTA, Superdex 200)
B7: StYeeD(Y43A), His6-tagged (natural protein, Spirochaeta thermophila, UniProt G0GAP7 1-80, looked up)
chain: T1 sequence (G0GAP7 1-80) with Y43A
notes: YeeD of Spirochaeta thermophila, residues 1-80, UniProt G0GAP7, with Y43A; source: E. coli C41(DE3), purified (Ni-NTA, Superdex 200)
B8: StYeeD(E63A), His6-tagged (natural protein, Spirochaeta thermophila, UniProt G0GAP7 1-80, looked up)
chain: T1 sequence (G0GAP7 1-80) with E63A
notes: YeeD of Spirochaeta thermophila, residues 1-80, UniProt G0GAP7, with E63A; source: E. coli C41(DE3), purified (Ni-NTA, Superdex 200)
B9: StYeeD(L38A), His6-tagged (natural protein, Spirochaeta thermophila, UniProt G0GAP7 1-80, looked up)
chain: T1 sequence (G0GAP7 1-80) with L38A
notes: YeeD of Spirochaeta thermophila, residues 1-80, UniProt G0GAP7, with L38A; source: E. coli C41(DE3), purified (Ni-NTA, Superdex 200)
B10: StYeeD(E9A), His6-tagged (natural protein, Spirochaeta thermophila, UniProt G0GAP7 1-80, looked up)
chain: T1 sequence (G0GAP7 1-80) with E9A
notes: YeeD of Spirochaeta thermophila, residues 1-80, UniProt G0GAP7, with E9A; source: E. coli C41(DE3), purified (Ni-NTA, Superdex 200)
B11: StYeeD(E15A), His6-tagged (natural protein, Spirochaeta thermophila, UniProt G0GAP7 1-80, looked up)
chain: T1 sequence (G0GAP7 1-80) with E15A
notes: YeeD of Spirochaeta thermophila, residues 1-80, UniProt G0GAP7, with E15A; source: E. coli C41(DE3), purified (Ni-NTA, Superdex 200)
B12: StYeeD(E48A), His6-tagged (natural protein, Spirochaeta thermophila, UniProt G0GAP7 1-80, looked up)
chain: T1 sequence (G0GAP7 1-80) with E48A
notes: YeeD of Spirochaeta thermophila, residues 1-80, UniProt G0GAP7, with E48A; source: E. coli C41(DE3), purified (Ni-NTA, Superdex 200)
B13: StYeeD(V16A), His6-tagged (natural protein, Spirochaeta thermophila, UniProt G0GAP7 1-80, looked up)
chain: T1 sequence (G0GAP7 1-80) with V16A
notes: YeeD of Spirochaeta thermophila, residues 1-80, UniProt G0GAP7, with V16A; source: E. coli C41(DE3), purified (Ni-NTA, Superdex 200)

Changes are numbered by the printed parent chain. Names and notes keep the numbering of the source.

The first data set concerns the molecule itself. Briefly: SEC; purified His-tagged StYeeD(WT) on Superdex 200 Increase 10/300 GL, 10 mM Tris-HCl pH 8.0, 300 mM NaCl; two peaks compared with gel filtration markers.
Details: not given
The term stoichiometry N denotes the number of molecules, sites or subunits per partner or assembly. In the case of B1, the “stoichiometry N” value was determined as 2.

Substrate in a further data set: O=S(O)(O)=S
Put plainly: solid-supported membrane electrophysiology of proteoliposomes, negative peak area. The class given is biochemical, Winmispira thermophila. Conditions: transport, Na2S2O3 1.25-40 mM exchanged against equal Na2SO4, pH 6.7, Michaelis-Menten fit.
As a reminder, the Km is the concentration of substrate that gives half-maximal velocity. Consider B2, for which the Michaelis constant (Km) came to 626.1 µM.

For the next data set, the target named is T1, StYeeD. Briefly: H2S release with fluorescent probe HSip-1; adduct by MALDI-TOF MS. The class given is biochemical. Conditions: 500 μM thiosulfate, 24.1 μM YeeD, 70 μM β-ME, pH 8.0, 37°C; covalent (C17).
Consider `O=S(O)(O)=S` [thiosulfate ion], for which the “H2S release with fluorescent probe HSip-1; adduct by MALDI-TOF MS” value is recorded as “suggesting that YeeD catalyzes the decomposition of thiosulfate as a substrate”.

The next data set addresses T2, Spirochaeta thermophila YeeE. Put plainly: BLI; StYeeD-His6 (4.82 μM) loaded on a Ni-NTA biosensor, 11.05 μM StYeeE in solution; Octet N1, room temperature; 20 mM Tris-HCl pH 8.0, 300 mM NaCl, 0.1% DDM, 1 mM β-ME; 120 s association, 120 s dissociation; local fitting; 3 measurements. WT was also run with 300 mM Na2SO4 (binding similar) or 300 mM Na2S2O3 (binding significantly decreased). Conditions: both partners purified. (BLI is a label-free optical method that tracks binding on a fibre tip over time.)
As usually defined, the Kd is the concentration at which binding is half-saturated. The koff is a measure of how fast the partners let go of each other. Broadly, the kon is the rate constant with which the complex forms. Higher therefore signals fast association. Molecule B1 registered a Kd of 1.6 ± 0.2 µM, a koff of 0.027 ± 0.0029 s⁻¹ and a kon of 17000 ± 2900 M⁻¹ s⁻¹.

B3 returned a Kd of 5.4 ± 0.3 µM, a koff of 0.032 ± 0.00058 s⁻¹ and a kon of 5800 ± 330 M⁻¹ s⁻¹.

Molecule B4 had a Kd of 1.2 ± 0.1 µM, an off-rate constant (koff) of 0.035 ± 0.004 s⁻¹ and a kon of 29000 ± 1600 M⁻¹ s⁻¹.

B5 yielded a Kd of 4.3 ± 0.61 µM, a koff of 0.037 ± 0.0019 s⁻¹ and a kon of 8900 ± 1100 M⁻¹ s⁻¹.

In turn, B6 displayed a dissociation constant (Kd) of 17 ± 23 µM, a koff of 0.12 ± 0.16 s⁻¹ and a kon of 9000 ± 1400 M⁻¹ s⁻¹.

Molecule B7 showed a dissociation constant (Kd) of 20 ± 2.1 µM, a koff of 0.16 ± 0.017 s⁻¹ and an association rate constant (kon) of 8200 ± 950 M⁻¹ s⁻¹.

B8: the Kd was found to be 1.7 ± 0.074 µM, the dissociation rate constant (koff) turned out to be 0.03 ± 0.0013 s⁻¹ and the on-rate (kon) was 18000 ± 260 M⁻¹ s⁻¹.

Turning to B9, the affinity, expressed as Kd, was 1.7 ± 0.055 µM; the koff was 0.032 ± 0.003 s⁻¹; the on-rate (kon) came out at 18000 ± 1300 M⁻¹ s⁻¹.

In turn, B10 registered an equilibrium dissociation constant (Kd) of 4.6 ± 0.22 µM, an off-rate (koff) of 0.027 ± 0.0021 s⁻¹ and a kon of 6000 ± 580 M⁻¹ s⁻¹.

Take B11: the dissociation constant Kd worked out at 9.5 ± 4.2 µM, the koff came out at 0.071 ± 0.033 s⁻¹ and the kon was found to be 7500 ± 1300 M⁻¹ s⁻¹.

The molecule B12 yielded a Kd of 4.5 ± 6.2 µM, a koff of 0.14 ± 0.2 s⁻¹ and a kon of 17000 ± 10000 M⁻¹ s⁻¹.

In turn, B13 came in with an equilibrium dissociation constant (Kd) of 5.6 ± 0.86 µM, a koff of 0.093 ± 0.023 s⁻¹ and a kon of 17000 ± 1600 M⁻¹ s⁻¹.
